Assay results: patent US20230313305A1, “METHODS AND USES OF INFLAMMATORY BOWEL DISEASE BIOMARKERS” (Washington University, priority 2017, published 2023)

Test system: latent TGFβ
Test: Cleavage of latent TGFβ by tPA in cell free assay
Type: biochemical
Conditions: cell free assay (FIG. 22)

B1: tPA: serine protease that converts plasminogen to plasmin (protein, UniProt P00750 36-562, looked up)
Tissue-type plasminogen …: SYQVICRDEKTQMIYQQHQSWLRPVLRSNRVEYCWCNSGRAQCHSVPVKSCSEPRCFNGGTCQQALYFSDFVCQCPEGFAGKCCEIDTRATCYEDQGISYRGTWSTAESGAECTNWNSSALAQKPYSGRRPDAIRLGLGNHNYCRNPDRDSKPWCYVFKAGKYSSEFCSTPACSEGNSDCYFGNGSAYRGTHSLTESGASCLPWNSMILIGKVYTAQNPSAQALGLGKHNYCRNPDGDAKPWCHVLKNRRLTWEYCDVPSCSTCGLRQYSQPQFRIKGGLFADIASHPWQAAIFAKHRRSPGERFLCGGILISSCWILSAAHCFQERFPPHHLTVILGRTYRVVPGEEEQKFEVEKYIVHKEFDDDTYDNDIALLQLKSDSSRCAQESSVVRTVCLPPADLQLPDWTECELSGYGKHEALSPFYSERLKEAHVRLYPSSRCTSQHLLNRTVTDNMLCAGDTRSGGPQANLHDACQGDSGGPLVCLNDGRMTLVGIISWGLGCGQKDVPGVYTKVTNYLDWIRDNMRP
cleavage of latent TGFβ: can directly and indirectly cleave
